From PMC11524007

How the values were obtained:
[1] = biological target: HIF1β (human (endogenous in LS174T and in patient renal tissue)) (UniProt P27540); assay: FRET or BRET; FuncOmap: Ef computed for each coincidence region of the two-site aFRET/FLIM images, HIF1β/HIF2α in ccRCC core B5; Otsu thresholding; Ef below 4% regarded as non-interactive
[2] = biological target: HIF1β (human (endogenous in LS174T and in patient renal tissue)) (UniProt P27540); assay: FRET or BRET; FuncOmap: Ef computed for each coincidence region of the two-site aiFRET/FLIM images of tissue microarray cores (HIF1β/HIF2α: B7, A5; PD-1/PD-L1: B7, B5, A5); Otsu thresholding; Ef below 4% regarded as non-interactive
[3] = biological target: HIF1β (human (endogenous in LS174T and in patient renal tissue)) (UniProt P27540); assay: FRET or BRET; two-site amplified FRET (aFRET) read by frequency-domain FLIM on PFA-fixed, permeabilised LS174T cells under hypoxia (1% O2, 48 h); donor ATTO488 on anti-HIF-1β, acceptor Alexa594 (TSA) on anti-HIF-2α; Ef below 4% regarded as non-interactive
[4] = biological target: HIF1β (human (endogenous in LS174T and in patient renal tissue)) (UniProt P27540); assay: FRET or BRET; two-site aiFRET read by frequency-domain FLIM on tissue microarray cores (normal renal tissue B7, ccRCC cores A1 and A2); median Ef over 10-20 hand-picked regions of interest; donor ATTO488 on HIF1β or PD-1, acceptor Alexa594 (TSA) on HIF2α or PD-L1; Ef below 4% regarded as non-interactive
[5] = biological target: PD-1 (human (endogenous in patient renal tissue)) (UniProt Q15116); assay: FRET or BRET; FuncOmap: Ef computed for each coincidence region of the two-site aiFRET/FLIM images of tissue microarray cores (HIF1β/HIF2α: B7, A5; PD-1/PD-L1: B7, B5, A5); Otsu thresholding; Ef below 4% regarded as non-interactive
Chain of PD-1 (human (endogenous in patient renal tissue)) (Q15116 25-288): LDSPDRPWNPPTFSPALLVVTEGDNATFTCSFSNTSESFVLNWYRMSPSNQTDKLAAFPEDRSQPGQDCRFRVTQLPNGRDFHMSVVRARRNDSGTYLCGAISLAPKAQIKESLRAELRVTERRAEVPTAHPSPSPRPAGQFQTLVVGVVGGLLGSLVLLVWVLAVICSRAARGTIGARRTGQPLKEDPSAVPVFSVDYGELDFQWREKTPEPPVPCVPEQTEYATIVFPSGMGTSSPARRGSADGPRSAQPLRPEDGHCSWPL

[6] = biological target: PD-1 (human (endogenous in patient renal tissue)) (UniProt Q15116); assay: FRET or BRET; two-site aiFRET read by frequency-domain FLIM on tissue microarray cores (normal renal tissue B7, ccRCC cores A1 and A2); median Ef over 10-20 hand-picked regions of interest; donor ATTO488 on HIF1β or PD-1, acceptor Alexa594 (TSA) on HIF2α or PD-L1; Ef below 4% regarded as non-interactive

Chain of HIF1β (human (endogenous in LS174T and in patient renal tissue)) (P27540 whole entry): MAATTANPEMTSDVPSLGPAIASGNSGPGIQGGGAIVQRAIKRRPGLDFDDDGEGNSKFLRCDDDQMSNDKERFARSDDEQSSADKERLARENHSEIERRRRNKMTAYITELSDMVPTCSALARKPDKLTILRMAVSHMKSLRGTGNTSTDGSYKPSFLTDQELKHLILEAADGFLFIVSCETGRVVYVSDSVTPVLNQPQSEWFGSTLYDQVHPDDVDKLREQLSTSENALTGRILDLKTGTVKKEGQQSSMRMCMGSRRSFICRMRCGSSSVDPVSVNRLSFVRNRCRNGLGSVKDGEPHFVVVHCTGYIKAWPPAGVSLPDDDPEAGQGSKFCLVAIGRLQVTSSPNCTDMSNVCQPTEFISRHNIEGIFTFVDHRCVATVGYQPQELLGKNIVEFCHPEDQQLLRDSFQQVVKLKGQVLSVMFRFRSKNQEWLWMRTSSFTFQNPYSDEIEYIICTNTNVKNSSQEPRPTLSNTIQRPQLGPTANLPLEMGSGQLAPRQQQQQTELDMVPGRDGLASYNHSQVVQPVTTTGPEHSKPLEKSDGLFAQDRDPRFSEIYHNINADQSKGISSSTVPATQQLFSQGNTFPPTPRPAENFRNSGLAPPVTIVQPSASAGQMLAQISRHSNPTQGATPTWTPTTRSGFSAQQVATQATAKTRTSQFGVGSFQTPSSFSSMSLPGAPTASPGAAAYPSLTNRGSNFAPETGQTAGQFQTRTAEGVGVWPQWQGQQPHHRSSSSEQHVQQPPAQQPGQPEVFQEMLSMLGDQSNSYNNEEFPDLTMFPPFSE
Chain of PD-L1 (Q9NZQ7 19-290): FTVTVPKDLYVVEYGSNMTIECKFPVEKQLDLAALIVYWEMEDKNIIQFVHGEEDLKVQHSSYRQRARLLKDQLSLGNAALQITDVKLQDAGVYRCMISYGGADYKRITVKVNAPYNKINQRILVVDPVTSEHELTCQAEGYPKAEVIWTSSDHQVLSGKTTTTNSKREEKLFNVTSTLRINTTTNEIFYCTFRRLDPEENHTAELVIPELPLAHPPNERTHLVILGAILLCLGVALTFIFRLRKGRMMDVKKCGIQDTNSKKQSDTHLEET

“HIF2α (from UniProt Q99814 1-870) (natural protein)” gave an Ef, core B5, region 61 [1] of 0%, an Ef, core B5, region 80 [1] of 0% and an Ef, core B5, region 103 [1] of 0%. The Ef, core B5, region 140 [1] was 0%, the Ef, core B5, region 162 [1] was 0% and the Ef, core B5, region 167 [1] was 0%. The Ef, core B5, region 174 [1] was 0%, the Ef, core B5, region 198 [1] was 0% and the Ef, core B5, region 199 [1] was 0%. For the same substance, the Ef, core B5, region 220 [1] was 0%, the Ef, core B5, region 230 [1] was 0% and the Ef, core B5, region 242 [1] was 0%. The Ef, core B5, region 246 [1] was 0%, the Ef, core B5, region 277 [1] was 0% and the Ef, core B5, region 318 [1] was 0%. The Ef, core B5, region 431 [1] was 0%, the Ef, core B5, region 452 [1] was 0% and the Ef, core B5, region 585 [1] was 0%. The Ef, core B5, region 586 [1] was 0%, the Ef, core B5, region 592 [1] was 0% and the Ef, core B5, region 600 [1] was 0%. It also gave an Ef, core B5, region 601 [1] of 0%, an Ef, core B5, region 632 [1] of 0% and an Ef, core B5, region 659 [1] of 0%. For the same substance, the Ef, core B5, region 669 [1] was 0%, the Ef, core A5, region 12 [2] was 12.2% and the Ef, core A5, region 78 [2] was 13.5%. The Ef, core A5, region 83 [2] was 12.7%, the Ef, core A5, region 131 [2] was 13.5% and the Ef, core A5, region 168 [2] was 12.2%. The Ef, core A5, region 187 [2] was 12.2%, the Ef, core A5, region 189 [2] was 16% and the Ef, core A5, region 235 [2] was 15.4%. It also gave an Ef, core A5, region 276 [2] of 12.2%, an Ef, core A5, region 294 [2] of 13.5% and an Ef, core A5, region 383 [2] of 16%. It also gave an Ef, core A5, region 400 [2] of 12.2%, an Ef, core A5, region 531 [2] of 13.5% and an Ef, core A5, region 619 [2] of 13.5%. For the same substance, the Ef, core A5, region 679 [2] was 12.2%, the Ef, core A5, region 733 [2] was 11.4% and the Ef, core A5, region 817 [2] was 13.5%. The Ef, core A5, region 822 [2] was 12.2%, the Ef, core A5, region 826 [2] was 12.2% and the Ef, core A5, region 829 [2] was 16%. It also gave an Ef, core A5, region 1273 [2] of 12.2%, an Ef, core A5, region 1299 [2] of 16% and an Ef, core A5, region 1302 [2] of 19.8%. For the same substance, the Ef, core A5, region 1307 [2] was 21.1%, the Ef, core A5, region 1308 [2] was 14.8% and the Ef, core B7, region 64 [2] was 0%. For the same substance, the Ef, core B7, region 231 [2] was 0%, the Ef, core B7, region 402 [2] was 0% and the Ef, core B7, region 632 [2] was 0%. The Ef, core B7, region 633 [2] was 0%, the Ef, core B7, region 634 [2] was 0% and the Ef, core B7, region 635 [2] was 0%. The Ef, core B7, region 636 [2] was 0%, the Ef, core B7, region 637 [2] was 0% and the Ef, core B7, region 638 [2] was 0%. It also gave an Ef, core B7, region 639 [2] of 0%, an Ef, core B7, region 640 [2] of 0% and an Ef, core B7, region 641 [2] of 0%. The Ef, core B7, region 657 [2] was 0%, the Ef, core B7, region 662 [2] was 7.66% and the Ef, core B7, region 664 [2] was 0%. The Ef, core B7, region 672 [2] was 4.95%, the Ef, core B7, region 685 [2] was 0% and the Ef, core B7, region 686 [2] was 0%. It also gave an Ef, core B7, region 712 [2] of 0%, an Ef, core B7, region 719 [2] of 0% and an Ef, core B7, region 729 [2] of 0%. It also gave an Ef, core B7, region 754 [2] of 0%, an Ef, core B7, region 943 [2] of 0% and an Ef, core B7, region 950 [2] of 0%. It also gave a median FRET efficiency (hypoxia) [3] of 7.75%, a median Ef, ccRCC core A1 [4] of 13.6% and a median Ef, ccRCC core A2 [4] of 9.3%. For the same substance, the median Ef, normal tissue [4] was 6.7%.
For “PD-L1 (from UniProt Q9NZQ7 19-290) (ligand)”, the Ef, core A5, region 57 [5] was 0%, the Ef, core A5, region 63 [5] was 10.9% and the Ef, core A5, region 92 [5] was 8.6%. For the same substance, the Ef, core A5, region 110 [5] was 8.34%, the Ef, core A5, region 186 [5] was 8.16% and the Ef, core A5, region 421 [5] was 5.03%. For the same substance, the Ef, core A5, region 448 [5] was 7.7%, the Ef, core A5, region 482 [5] was 9.31% and the Ef, core A5, region 505 [5] was 7.72%. The Ef, core A5, region 564 [5] was 8.82%, the Ef, core A5, region 639 [5] was 11.2% and the Ef, core A5, region 653 [5] was 12.1%. The Ef, core A5, region 812 [5] was 16.7%, the Ef, core A5, region 823 [5] was 9.22% and the Ef, core A5, region 929 [5] was 8.25%. For the same substance, the Ef, core A5, region 949 [5] was 6.49%, the Ef, core A5, region 1053 [5] was 12.9% and the Ef, core A5, region 1064 [5] was 10.6%. It also gave an Ef, core A5, region 1113 [5] of 4.28%, an Ef, core A5, region 1241 [5] of 6.86% and an Ef, core A5, region 1250 [5] of 10.1%. For the same substance, the Ef, core A5, region 1255 [5] was 8.24%, the Ef, core A5, region 1274 [5] was 8.32% and the Ef, core A5, region 1360 [5] was 6.13%. For the same substance, the Ef, core A5, region 1405 [5] was 12.4%, the Ef, core B5, region 81 [5] was 21.8% and the Ef, core B5, region 107 [5] was 30.6%. It also gave an Ef, core B5, region 176 [5] of 28.4%, an Ef, core B5, region 249 [5] of 23.6% and an Ef, core B5, region 261 [5] of 15.7%. It also gave an Ef, core B5, region 373 [5] of 24%, an Ef, core B5, region 546 [5] of 24.8% and an Ef, core B5, region 551 [5] of 16.4%. The Ef, core B5, region 586 [5] was 17%, the Ef, core B5, region 622 [5] was 23.1% and the Ef, core B5, region 774 [5] was 25.1%. It also gave an Ef, core B5, region 841 [5] of 29.4%, an Ef, core B5, region 930 [5] of 28.3% and an Ef, core B5, region 1104 [5] of 21.1%. It also gave an Ef, core B5, region 1155 [5] of 20.4%, an Ef, core B5, region 1187 [5] of 0% and an Ef, core B5, region 1246 [5] of 15.8%. The Ef, core B5, region 1288 [5] was 26.3%, the Ef, core B5, region 1500 [5] was 28.5% and the Ef, core B5, region 1612 [5] was 13.9%. The Ef, core B5, region 1772 [5] was 20.8%, the Ef, core B5, region 1811 [5] was 24% and the Ef, core B5, region 1878 [5] was 18.1%. It also gave an Ef, core B5, region 2043 [5] of 20.4%, an Ef, core B5, region 2232 [5] of 28.3% and an Ef, core B7, region 24 [5] of 21.5%. The Ef, core B7, region 67 [5] was 14.2%, the Ef, core B7, region 102 [5] was 16.1% and the Ef, core B7, region 197 [5] was 21.2%. The Ef, core B7, region 233 [5] was 48.4%, the Ef, core B7, region 299 [5] was 16.3% and the Ef, core B7, region 356 [5] was 20%. The Ef, core B7, region 384 [5] was 16.5%, the Ef, core B7, region 442 [5] was 19.1% and the Ef, core B7, region 548 [5] was 23.4%. For the same substance, the Ef, core B7, region 561 [5] was 12.8%, the Ef, core B7, region 648 [5] was 26.6% and the Ef, core B7, region 772 [5] was 14.2%. It also gave an Ef, core B7, region 905 [5] of 12%, an Ef, core B7, region 984 [5] of 22.3% and an Ef, core B7, region 1009 [5] of 28.9%. The Ef, core B7, region 1273 [5] was 23.4%, the Ef, core B7, region 1454 [5] was 29.9% and the Ef, core B7, region 1657 [5] was 18.1%. It also gave an Ef, core B7, region 1711 [5] of 25.7%, an Ef, core B7, region 1750 [5] of 18.1% and an Ef, core B7, region 1861 [5] of 27.4%. It also gave an Ef, core B7, region 1919 [5] of 14.7%, an Ef, core B7, region 1932 [5] of 26.4% and an Ef, core B7, region 1973 [5] of 28.4%. The median Ef, normal tissue [6] was 5.24%.
